The values below are quoted from earlier work in publication PMC5437010.

The data set deals with factor XIa (Homo sapiens) (UniProt P03951).

pKi: −log10 of the molar value.

UniProt P03951, sequence (P03951 388-625): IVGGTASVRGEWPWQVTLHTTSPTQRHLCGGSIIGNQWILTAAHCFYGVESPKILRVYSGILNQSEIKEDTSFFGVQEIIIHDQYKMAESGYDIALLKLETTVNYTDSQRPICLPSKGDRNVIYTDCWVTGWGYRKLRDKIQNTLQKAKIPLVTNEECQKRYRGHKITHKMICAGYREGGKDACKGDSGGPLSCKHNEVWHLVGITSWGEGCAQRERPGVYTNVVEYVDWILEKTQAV

For the substance KPI KPI (from UniProt P05067), the negative-log Ki (pKi) – broadly, −log10 of the Ki, conventionally taken in molar units – was 9.40.
